Earlier results in PMC9414616.
pKd: −log10 of the molar value.

Target: NTSR2 (UniProt O95665)
UniProt O95665, sequence (O95665 whole entry): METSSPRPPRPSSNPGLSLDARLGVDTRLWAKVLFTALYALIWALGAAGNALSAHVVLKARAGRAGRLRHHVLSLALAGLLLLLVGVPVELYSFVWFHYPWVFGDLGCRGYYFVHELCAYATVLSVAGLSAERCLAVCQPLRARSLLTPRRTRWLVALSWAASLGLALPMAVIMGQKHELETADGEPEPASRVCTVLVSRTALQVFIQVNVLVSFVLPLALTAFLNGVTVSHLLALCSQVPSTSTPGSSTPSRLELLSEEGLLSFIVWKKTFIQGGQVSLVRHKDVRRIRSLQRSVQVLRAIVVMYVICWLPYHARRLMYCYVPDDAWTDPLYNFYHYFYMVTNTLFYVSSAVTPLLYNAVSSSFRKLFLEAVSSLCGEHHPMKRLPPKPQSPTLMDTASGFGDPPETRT

pKd: 8.40
Substance: neurotensin (from UniProt P30990)
